# Experimental data taken from the supplement of paper PMC11246515.
# ± gives the standard deviation of the averaged measurements.
# Assay: total protein half-life in vivo (active degradation + dilution); higher = more stable protein
# [1] = E. coli NCM3722 delta-clpP delta-lon delta-hslV, growth: N-lim chemostat, doubling time 6 h
# [2] = E. coli NCM3722 delta-clpP, growth: N-lim chemostat, doubling time 6 h
# [3] = E. coli NCM3722 delta-hslV, growth: N-lim chemostat, doubling time 6 h
# [4] = E. coli NCM3722 delta-lon, growth: N-lim chemostat, doubling time 6 h
# [5] = E. coli NCM3722 delta-smpB, growth: N-lim chemostat, doubling time 6 h
# [6] = wild type E. coli NCM3722, growth: C-lim chemostat, doubling time 3 h
# [7] = wild type E. coli NCM3722, growth: C-lim chemostat, doubling time 6 h
# [8] = wild type E. coli NCM3722, growth: C-lim chemostat, doubling time 12 h
# [9] = wild type E. coli NCM3722, growth: N-lim chemostat, doubling time 6 h
# [10] = wild type E. coli NCM3722, growth: N-lim chemostat, doubling time 12 h
# [11] = wild type E. coli NCM3722, growth: P-lim chemostat, doubling time 6 h
# [12] = wild type E. coli NCM3722, growth: P-lim chemostat, doubling time 12 h
Sequence,total protein half-life in vivo [1],total protein half-life in vivo [2],total protein half-life in vivo [3],total protein half-life in vivo [4],total protein half-life in vivo [5],total protein half-life in vivo [6],total protein half-life in vivo [7],total protein half-life in vivo [8],total protein half-life in vivo [9],total protein half-life in vivo [10],total protein half-life in vivo [11],total protein half-life in vivo [12]
MARIIVVTSGKGGVGKTTSSAAIATGLAQKGKKTVVIDFDIGLRNLDLIMGCERRVVYDFVNVIQGDATLNQALIKDKRTENLYILPASQTRDKDALTREGVAKVLDDLKAMDFEFIVCDSPAGIETGALMALYFADEAIITTNPEVSSVRDSDRILGILASKSRRAENGEEPIKEHLLLTRYNPGRVSRGDMLSMEDVLEILRIKLVGVIPEDQSVLRASNQGEPVILDINADAGKAYADTVERLLGEERPFRFIEEEKKGFLKRLFGG [P0AEZ3],5.31 ± 0.21 h,5.22 ± 0.21 h,5.442 ± 0.017 h,5.66 ± 0.15 h,4.87 ± 0.023 h,2.94 ± 0.16 h,5.54 ± 0.16 h,10.1 ± 0.8 h,5.17 ± 0.36 h,9.98 ± 0.53 h,4.93 ± 0.2 h,9.29 ± 0.22 h
MAKEISSELLNTILTRVGGPGNIASCGNCMTRLRLGVHDSSLVDPNIKTLEGVKGVILTSDQVQVVFGPGKAHRAAKAMSELLGEAPVQDAAEIAAQNKRQLKAKQTSGVQQFLAKFATIFTPLIPGFIAAGLLLGIATLIATVMHVPADAQGTLPDALNFMKVFSKGLFTFLVILVGYNAAQAFGGTGVNGAIIAALFLLGYNPAATTGYYAGFHDFFGLPIDPRGNIIGVLIAAWACARIEGMVRRFMPDDLDMLLTSLITLLITATLAYLIIMPLGGWLFEGMSWLFMHLNSNPFGCAVLAGLFLIAVVFGVHQGFIPVYLALMDSQGFNSLFPILSMAGAGQVGAALALYWRAQPHSALRSQVRGAIIPGLLGVGEPLIYGVTLPRMKPFVTACLGGAAGGLFIGLIAWWGLPMGLNSAFGPSGLVALPLMTSAQGILPAMAVYAGGILVAWVCGFIFTTLFGCRNVNLD,3.66 h,3.67 h,,,6.02 h,3.48 h,5.06 h,,5.006 ± 0.029 h,,,
MKLIPRSSDISPGIDGICPGPFPPNGFTVLTDAAYGNGDCFGLYWPIGQEHKLPIVCETYHDEWRIVPAFSSIKKFEEWLEVNDDDPHENGISIEDQDFAANLFRVARKCLSTGRLDDALPLLQRATEQLPEVSEYWLALAIQYRRCKKTEAAAQAALNAYLGNWAFGVPDNKVIHLLSQAADVPNFQDDPVIQCIKEQGLDLSFGGTKENNNYPLMQMCVDTYFAQRKPLQALTLLHNYAWIMSSETTAFQERYDFNIDEWRAKFRQLCLEYFGDSRTQFT,3.49 h,,3.01 h,,3.03 ± 0.077 h,2.62 ± 0.22 h,4.63 ± 0.52 h,8.76 h,3.47 ± 0.64 h,5.75 ± 0.36 h,,9.99 h
MMKLMFASDIHGSLPATERVLELFAQSGAQWLVILGDVLNHGPRNALPEGYAPAKVAERLNEVAHKVIAVRGNCDSEVDQMLLHFPITAPWQQVLLEKQRLFLTHGHLFGPENLPALNQNDVLVYGHTHLPVAEQRGEIFHFNPGSVSIPKGGNPASYGMLDNDVLSVIALNDQSIIAQVAINP,,4.01 ± 0.21 h,3.75 ± 0.28 h,4.04 ± 0.35 h,3.97 ± 0.34 h,2.7 ± 0.24 h,5.48 ± 0.14 h,9.4066 ± 0.0045 h,4 ± 0.66 h,6.84 ± 0.35 h,5.32 ± 0.64 h,10.1 ± 0.38 h
MLAISSNLSKMIIFIFAIIIIVVLCVITYLYLYKDESLVSKHYINYMAIPENDGVFTWLPDFFPHVAVDISIYTNVEDDYFFLIFP,3.41 h,,5.43 h,,,,,,,,,
MKQLWFAMSLVTGSLLFSANASATPASGALLQQMNLASQSLNYELSFISINKQGVESLRYRHARLDNRPLAQLLQMDGPRREVVQRGNEISYFEPGLEPFTLNGDYIVDSLPSLIYTDFKRLSPYYDFISVGRTRIADRLCEVIRVVARDGTRYSYIVWMDTESKLPMRVDLLDRDGETLEQFRVIAFNVNQDISSSMQTLAKANLPPLLSVPVGEKAKFSWTPTWLPQGFSEVSSSRRPLPTMDNMPIESRLYSDGLFSFSVNVNRATPSSTDQMLRTGRRTVSTSVRDNAEITIVGELPPQTAKRIAENIKFGAAQ [P0AFX9],,6.16 ± 0.25 h,6.13 ± 0.069 h,5.896 ± 0.045 h,5.8 ± 0.49 h,2.96 ± 0.22 h,6.16 ± 0.61 h,10.4 ± 0.19 h,6.73 ± 0.14 h,13.2 ± 1.5 h,5.88 ± 0.69 h,12 ± 0.74 h
MDQFECINVADAHQKLQEKEAVLVDIRDPQSFAMGHAVQAFHLTNDTLGAFMRDNDFDTPVMVMCYHGNSSKGAAQYLLQQGYDVVYSIDGGFEAWQRQFPAEVAYGA [P0A6V5],,,,,,,,,1.91 h,,,
MTKPYVRLDKNDAAVLLVDHQAGLLSLVRDIEPDKFKNNVLALGDLAKYFNLPTILTTSFETGPNGPLVPELKAQFPDTPYIARPGNINAWDNEDFVKAVKATGKKQLIIAGVVTEVCVAFPALSAIEEGFDVFVVTDASGTFNEITRHSAWDRLSQAGAQLMTWFGVACELHRDWRNDIEGLATLFSNHIPDYRNLMTSYDTLTKQK,6.75 ± 1.6 h,5.73 ± 0.18 h,5.4 ± 0.7 h,5.666 ± 0.053 h,4.69 ± 0.19 h,3.0124 ± 0.0024 h,,10.3 ± 1.9 h,5.17 ± 0.61 h,9.22 ± 0.33 h,5.84 ± 0.94 h,12.9 ± 1.1 h
MITNTKLDPIETASVDELQALQTQRLKWTLKHAYENVPMYRRKFDAAGVHPDDFRELSDLRKFPCTTKQDLRDNYPFDTFAVPMEQVVRIHASSGTTGKPTVVGYTQNDIDNWANIVARSLRAAGGSPKDKIHVAYGYGLFTGGLGAHYGAERLGATVIPMSGGQTEKQAQLIRDFQPDMIMVTPSYCLNLIEELERQLGGDASGCSLRVGVFGAEPWTQAMRKEIERRLGITALDIYGLSEVMGPGVAMECLETTDGPTIWEDHFYPEIVNPHDGTPLADGEHGELLFTTLTKEALPVIRYRTRDLTRLLPGTARTMRRMDRISGRSDDMLIIRGVNVFPSQLEEEIVKFEHLSPHYQLEVNRRGHLDSLSVKVELKESSLTLTHEQRCQVCHQLRHRIKSMVGISTDVMIVNCGSIPRSEGKACRVFDLRNIVGA,4.99 ± 0.39 h,,,,,0.692 ± 0.075 h,0.955 ± 0.08 h,1.21 ± 0.14 h,,,,0.624 h
